Assay results: US20080261906
Where a chain is given by its changes, count along the chain named. Names and notes keep the numbering of the source.

B1: TBC1D20 with a 6xHIS N-terminal tag (bacterially expressed, pDEST-17) (protein)
chain: MALRSAQGDGPTSGHWDGGAEKADFNAKRKKKVAEIHQALNSDPTDVAALRRMAISEGGLLTDEIRRKVWPKLLNVNANDPPPISGKNLRQMSKDYQQVLLDVRRSLRRFPPGMPEEQREGLQEELIDIILLILERNPQLHYYQGYHDIVVTFLLVVGERLATSLVEKLSTHHLRDFMDPTMDNTKHILNYLMPIIDQVNPELHDFMQSAEVGTIFALSWLITWFGHVLSDFRHVVRLYDFFLACHPLMPIYFAAVIVLYREQEVLDCDCDMASVHHLLSQIPQDLPYETLISRAGDLFVQFPPSELAREAAAQQQAERTAASTFKDFELASAQQRPDMVLRQRFRGLLRPEDRTKDVLTKPRTNRFVKLAVMGLTVALGAAALAVVKSALEWAPKFQLQLFP
B2: mutant TBC1D20 (R66A, R105A), 6xHIS N-terminal tag, bacterially expressed (protein)
chain: B1 chain with R66A, R105A

Assays:
[1] = biological target: other Rabs and Arfs of the panel (27 mammalian Rabs and several different ARFs were tested)
[2] = biological target: Rab1 GTPase (GTP-loaded, purified)

Protein	catalytic efficiency relative to the intrinsic rate constant for GTP hydrolysis [1]	catalytic efficiency (kcat/Km) of GAP-accelerated GTP hydrolysis [2]	kinetics of Rab1 GTP hydrolysis (GAP assay) [2]
B1	Note that only Rab1 displays significant activation by TBC1D20	Activation of Rab1GTP hydrolysis by TBC1D20 has an apparent catalytic efficiency (kcat/Km) of 360 M^-1s^-1	–
B2	–	–	the GTPase activating activity of TBC1D20 on Rab1 was abolished when these conserved arginine residues were mutated to alanine
